Drawing on the supplement of paper PMC10567573, this text covers protein stability index for 94 variants.

Sequences and labels used below:
B1: NET1 (parent)
chain: IKRTIRVLDVNNQSFREQEEPSNK
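Further: lentivirally expressed fusions sorted by FACS into six bins by GFP to DsRed ratio, PSI derived from sequencing read proportions per bin multiplied by bin number.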

The variants in this data set derive from B1. In words: protein stability index of a GFP-peptide fusion (GPS, HEK-293T) (PSI 1-6); higher = more stable. The settings on record: c terminus: a fixed tail appended.
Turning to IKRRIRVLDVNNQSFREQEEPSNK, the protein stability index was determined as 3.99.

For the variant IKRIIRVLDVNNQSFREQEEPSNK, the protein stability index was 1.79.

Consider IKRNIRVLDVNNQSFREQEEPSNK, for which the protein stability index turned out to be 4.13.

As to IKRPIRVLDVNNQSFREQEEPSNK, the protein stability index was determined as 3.89.

On to IKRFIRVLDVNNQSFREQEEPSNK, for which the protein stability index was 2.88.

Consider IKRKIRVLDVNNQSFREQEEPSNK, for which the protein stability index is 3.75.

Regarding IKRYIRVLDVNNQSFREQEEPSNK, the protein stability index came out at 3.09.

On to IKRLIRVLDVNNQSFREQEEPSNK, for which the protein stability index was found to be 2.59.

As to IKRWIRVLDVNNQSFREQEEPSNK, the protein stability index was found to be 2.38.

For IKREIRVLDVNNQSFREQEEPSNK, the protein stability index was determined as 4.96.

Regarding IKRSIRVLDVNNQSFREQEEPSNK, the protein stability index was found to be 4.09.

On to IKRVIRVLDVNNQSFREQEEPSNK, for which the protein stability index was 2.51.

Consider IKRMIRVLDVNNQSFREQEEPSNK, for which the protein stability index amounted to 3.3.

With IKRQIRVLDVNNQSFREQEEPSNK, the protein stability index stood at 3.86.

In the case of IKRHIRVLDVNNQSFREQEEPSNK, the protein stability index came out at 3.89.

Regarding IKRCIRVLDVNNQSFREQEEPSNK, the protein stability index was determined as 3.51.

For IKRGIRVLDVNNQSFREQEEPSNK, the protein stability index was determined as 3.41.

In the case of IKRDIRVLDVNNQSFREQEEPSNK, the protein stability index was 4.51.

For the variant IKRTIRVFDVNNQSFREQEEPSNK, the protein stability index came to 3.83.

On to IKRTIRVNDVNNQSFREQEEPSNK, for which the protein stability index is 4.57.

For IKRTIRVDDVNNQSFREQEEPSNK, the protein stability index worked out at 4.92.

Regarding IKRTIRVCDVNNQSFREQEEPSNK, the protein stability index came to 4.93.

For the variant IKRTIRVKDVNNQSFREQEEPSNK, the protein stability index amounted to 4.46.

Take IKRTIRVEDVNNQSFREQEEPSNK: the protein stability index is 5.07.

Take IKRTIRVGDVNNQSFREQEEPSNK: the protein stability index was found to be 4.99.

IKRTIRVIDVNNQSFREQEEPSNK: the protein stability index was 2.96.

Regarding IKRTIRVHDVNNQSFREQEEPSNK, the protein stability index turned out to be 4.93.

For the variant IKRTIRVMDVNNQSFREQEEPSNK, the protein stability index was 3.75.

Take IKRTIRVADVNNQSFREQEEPSNK: the protein stability index is 4.45.

Take IKRTMRVLDVNNQSFREQEEPSNK: the protein stability index was determined as 2.55.

Regarding IKRTFRVLDVNNQSFREQEEPSNK, the protein stability index was 3.39.

IKRTNRVLDVNNQSFREQEEPSNK: the protein stability index is 4.08.

Regarding IKRTYRVLDVNNQSFREQEEPSNK, the protein stability index is 3.95.

For the variant IKRTQRVLDVNNQSFREQEEPSNK, the protein stability index stood at 5.04.

As for IKRTHRVLDVNNQSFREQEEPSNK, the protein stability index was determined as 4.69.

For IKRTPRVLDVNNQSFREQEEPSNK, the protein stability index stood at 3.78.

Regarding IKRTDRVLDVNNQSFREQEEPSNK, the protein stability index came to 4.91.

For the variant IKRTRRVLDVNNQSFREQEEPSNK, the protein stability index came out at 4.82.

For the variant IKRTTRVLDVNNQSFREQEEPSNK, the protein stability index amounted to 5.1.

In the case of IKRTSRVLDVNNQSFREQEEPSNK, the protein stability index stood at 4.56.

For IKRTWRVLDVNNQSFREQEEPSNK, the protein stability index came to 3.31.

As for IKRTKRVLDVNNQSFREQEEPSNK, the protein stability index was determined as 4.75.

IKRTCRVLDVNNQSFREQEEPSNK: the protein stability index worked out at 4.41.

IKRTARVLDVNNQSFREQEEPSNK: the protein stability index was found to be 4.53.

For the variant IKRTERVLDVNNQSFREQEEPSNK, the protein stability index worked out at 5.05.

Turning to IKRTLRVLDVNNQSFREQEEPSNK, the protein stability index was found to be 2.94.

Regarding IKRTIMVLDVNNQSFREQEEPSNK, the protein stability index is 3.32.

Take IKRTIGVLDVNNQSFREQEEPSNK: the protein stability index worked out at 4.51.

Consider IKRTINVLDVNNQSFREQEEPSNK, for which the protein stability index came to 3.62.

On to IKRTIDVLDVNNQSFREQEEPSNK, for which the protein stability index was determined as 4.77.

On to IKRTIVVLDVNNQSFREQEEPSNK, for which the protein stability index turned out to be 2.77.

Regarding IKRTIFVLDVNNQSFREQEEPSNK, the protein stability index was 2.68.

Turning to IKRTIKVLDVNNQSFREQEEPSNK, the protein stability index is 4.04.

For the variant IKRTIEVLDVNNQSFREQEEPSNK, the protein stability index is 4.65.

As for IKRTITVLDVNNQSFREQEEPSNK, the protein stability index came to 3.92.

Consider IKRTIIVLDVNNQSFREQEEPSNK, for which the protein stability index amounted to 1.99.

As to IKRTIWVLDVNNQSFREQEEPSNK, the protein stability index was 2.42.

With IKRTILVLDVNNQSFREQEEPSNK, the protein stability index was found to be 2.63.

Take IKRTIQVLDVNNQSFREQEEPSNK: the protein stability index came out at 4.16.

Regarding IKRTISVLDVNNQSFREQEEPSNK, the protein stability index stood at 4.23.

Consider IKRTIYVLDVNNQSFREQEEPSNK, for which the protein stability index is 2.35.

Regarding IKRTICVLDVNNQSFREQEEPSNK, the protein stability index turned out to be 3.35.

Turning to IKRTIPVLDVNNQSFREQEEPSNK, the protein stability index came out at 4.87.

On to IKRTIHVLDVNNQSFREQEEPSNK, for which the protein stability index was 4.45.

As for IKRTIAVLDVNNQSFREQEEPSNK, the protein stability index worked out at 2.88.

With IKTTIRVLDVNNQSFREQEEPSNK, the protein stability index came to 4.02.

For IKQTIRVLDVNNQSFREQEEPSNK, the protein stability index is 4.44.

As to IKSTIRVLDVNNQSFREQEEPSNK, the protein stability index was 4.71.

Consider IKPTIRVLDVNNQSFREQEEPSNK, for which the protein stability index worked out at 4.57.

With IKMTIRVLDVNNQSFREQEEPSNK, the protein stability index amounted to 2.08.

As to IKNTIRVLDVNNQSFREQEEPSNK, the protein stability index worked out at 4.86.

As for IKVTIRVLDVNNQSFREQEEPSNK, the protein stability index stood at 1.73.

Take IKWTIRVLDVNNQSFREQEEPSNK: the protein stability index stood at 1.49.

For the variant IKLTIRVLDVNNQSFREQEEPSNK, the protein stability index was determined as 1.9.

On to IKYTIRVLDVNNQSFREQEEPSNK, for which the protein stability index turned out to be 2.19.

On to IKRTIRSLDVNNQSFREQEEPSNK, for which the protein stability index was determined as 4.28.

For IKRTIRILDVNNQSFREQEEPSNK, the protein stability index came out at 4.02.

Turning to IKRTIRLLDVNNQSFREQEEPSNK, the protein stability index was 3.46.

IKRTIRWLDVNNQSFREQEEPSNK: the protein stability index was found to be 2.41.

As for IKRTIRFLDVNNQSFREQEEPSNK, the protein stability index was 3.35.

With IKRTIRGLDVNNQSFREQEEPSNK, the protein stability index came out at 3.92.

IKRTIRNLDVNNQSFREQEEPSNK: the protein stability index turned out to be 4.5.

Take IKRTIRRLDVNNQSFREQEEPSNK: the protein stability index worked out at 3.71.

Regarding IKRTIRPLDVNNQSFREQEEPSNK, the protein stability index amounted to 4.22.

Regarding IKRTIRALDVNNQSFREQEEPSNK, the protein stability index was determined as 3.3.

On to IKRTIRELDVNNQSFREQEEPSNK, for which the protein stability index amounted to 3.74.

Take IKRTIRDLDVNNQSFREQEEPSNK: the protein stability index was found to be 4.53.

For the variant IKRTIRHLDVNNQSFREQEEPSNK, the protein stability index was found to be 4.25.

Regarding IKRTIRMLDVNNQSFREQEEPSNK, the protein stability index was found to be 3.27.

For IKRTIRYLDVNNQSFREQEEPSNK, the protein stability index came out at 3.04.

On to IKRTIRCLDVNNQSFREQEEPSNK, for which the protein stability index was found to be 3.62.

Turning to IKRTIRKLDVNNQSFREQEEPSNK, the protein stability index turned out to be 4.37.

Consider IKRTIRQLDVNNQSFREQEEPSNK, for which the protein stability index is 5.07.

On to IKRTIRTLDVNNQSFREQEEPSNK, for which the protein stability index came out at 4.21.
